Measured values as given in patent US20140023585A1, “177 LUTETIUM-LABELED BOMBESIN ANALOGS FOR RADIOTHERAPY” (UNIVERSITATSSPITAL BASEL, priority 2010, published 2014).

Columns and labels:
PC-3 tumors [1] = assay: in vivo; settings: i.v.
Procedure: Biodistribution was investigated in NMRI nude mice bearing subcutaneous PC-3 tumors in the right hind limb at different time-points. Body weight of the male mice was approx. 30 g, 3 animals were investigated per time-point. After injecting an intravenous dose into the tail vein, mice were sacrificed at indicated time points and dissected organs were analyzed by radioactive counting. An administration dose of 100 μL was applied per animal with a mean activity of 86 kBq.
At indicated time points urine and feces were quantitatively collected. At the same time points, animals were sacrificed and exsanguinations under isoflurane anesthesia and the following organs and tissues were removed for measurement of [^177Lu] using the gamma-counter: spleen, liver, gallbladder, kidneys, lung, femur, heart, brain, fat, thyroid, muscle, skin, blood, tail, stomach (without content), prostate, intestine (with content), pancreas, adrenals, and the remaining body (designated as carcass).
Whole organs and tissues or aliquots were weighted and measured in a gamma-counter for radioactivity. In order to get the amount of total radioactivity administered in each animal (=100%) 3 aliquots (100 μL each) of the injected solution were always measured in parallel. The results of the biodistribution and excretion are reported as percent of injected dose per gram of tissue (% ID/g) and percent of injected dose per organ (% ID), respectively. All data are given as mean value±standard deviation, which were calculated by using all animals per time and sample.

PC-3 tumors [2] = assay: Radionuclide therapy study with repeated injections; assay type: in vivo, nude mice; settings: end of the study, compared to controls
Procedure: (§1) A first therapy study was conducted on 25 nude mice (15-20 g) subcutaneously implanted with PC-3 ([…]). For toxicity study the same therapy protocol was applied to 25 CD1 mice. Thirteen days after implantation the mice were randomly divided in 5 groups and treated as described below: • 1. […] 200 pmol of ^natcompound 2 • 5. PBS
According to the protocol agreed upon, three injections per week (days 0, 2, 4) were done and the procedure was repeated (days 14, 16, 18) after one pause week. Based on the biodistribution data of compound 3 with ^111In we observed that injections after 48 h would maintain stable the uptake in the tumor. The pause week is, in our opinion, important for the safety of the animals. The mice were periodically monitored by measuring tumor size and body mass. Animals with loss of >20% of their original weight or with tumor size >20 mm in diameter were sacrificed. Tumor sizes were determined by caliper measurements in two dimensions and tumor volumes were calculated assuming an elliptical shape.

[3] = Toxicity study, same therapy protocol in CD1 mice; assay type: in vivo
Procedure: as §1

CC(C)C[C@H](NC(=O)C[C@H](O)[C@H](CC(C)C)NC(=O)[C@H](Cc1c[nH]cn1)NC(=O)CNC(=O)[C@@H](NC(=O)[C@H](C)NC(=O)[C@H](Cc1c[nH]c2ccccc12)NC(=O)[C@H](CCC(N)=O)NC(=O)[C@@H](Cc1ccccc1)NC(=O)CN1CCC(NC(=O)CN2CCN(CC(=O)O)CCN(CC(=O)O)CCN(CC(=O)O)CC2)CC1)C(C)C)C(N)=O [compound 2, [^177Lu]-DOTA-4-amino-1-carboxymethylpiperidine-D-Phe-Gln-Trp-Ala-Val-Gly-His-Sta-Leu-NH2, metal not drawn]
% ID Gallbladder (PC-3 tumors [1]; 1.0 h p.a.): 0.000 % ID | % ID/g Kidney (PC-3 tumors [1]; 1.0 h p.a.): 1.72 (±0.45) % ID/g | % ID/g Tumor (PC-3 tumors [1]; 1.0 h p.a.): 5.60 (±1.66) % ID/g | % ID Gallbladder (PC-3 tumors [1]; 4.0 h p.a.): 0.000 % ID | % ID/g Kidney (PC-3 tumors [1]; 24.0 h p.a.): 0.57 (±0.21) % ID/g | % ID/g Liver (PC-3 tumors [1]; 24.0 h p.a.): 0.05 (±0.01) % ID/g | % ID/g Tumor (PC-3 tumors [1]; 24.0 h p.a.): 6.06 (±1.53) % ID/g | histopathological changes (PC-3 tumors [2]): no compound (radio-peptide) related histopathological changes | survival and health of CD1 animals [3]: alive and look healthy | body weight of CD1 animals ([3]; stabilized after 5-6 months): increased
